Data reported in patent US20210355229A1 (JIANGSU HENGRUI MEDICINE, published 2021).
Where two headings read alike, the source gives them in different places.

Columns and labels:
[1] = target: T1, human OX40-FC-biotin (human OX40 recombinant protein with Fc tag, Acro Biosystems OX40-H5255, labeled with … (human, UniProt P43489 29-216, labeled with biotin (site not stated))); assay: capture ELISA, biotin-OX40-Fc
T1 construct: range 29-216; Bought (Acro Biosystems OX40-H5255; printed once as OXO-H5255), expressed in HEK293; also called human Bio-OX40-FC; not shown: Fc tag of the bought protein
T1 sequence (looked up): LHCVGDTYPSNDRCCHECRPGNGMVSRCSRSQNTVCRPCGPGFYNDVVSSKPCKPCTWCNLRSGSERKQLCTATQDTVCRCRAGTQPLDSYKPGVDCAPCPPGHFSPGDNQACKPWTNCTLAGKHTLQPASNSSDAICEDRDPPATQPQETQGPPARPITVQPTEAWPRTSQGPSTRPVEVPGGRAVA
Protocol: 20xPBS buffer was diluted to 1 xwith deionized water. […] 100 μL of the diluted primary antibody was added to each well (the antibody to be tested was 5-fold diluted from the concentration of 10000 ng/ml, resulting in seven gradients, namely 10000 ng/ml, 2000 ng/ml, 400 ng/ml, 80 ng/ml, 16 ng/ml, 3.2 ng/ml, and 0.64 ng/ml, blank wells merely contained dilution solution, i.e., 2.5% skimmed milk in PBST), and incubated at 37° C. for 40 minutes. The plate was washed for 4 times with PBST, human OX40-FC-biotin (Acro biosystem, OXO-H5255, labeled biotin) was diluted with 2.5% skimmed milk in PBST, 100 μl was added to each well, incubated at 37° C. for 40 min, and the plate was washed for 4 times with PB ST. 100 μL TMB developing solution was added to each well, incubated for 3-15 minutes in dark at room temperature, 50 μl stop solution (1M sulfuric acid) was added to each well. The parameters were set for the microplate reader, the OD value was read at 450-630nm, and the test data were saved.

[2] = target: T2, human OX40 on Jurkat-NF-Kb luc-hOX40 cells (human, UniProt P43489 29-277); assay: cell-based or functional assay
T2 sequence (looked up): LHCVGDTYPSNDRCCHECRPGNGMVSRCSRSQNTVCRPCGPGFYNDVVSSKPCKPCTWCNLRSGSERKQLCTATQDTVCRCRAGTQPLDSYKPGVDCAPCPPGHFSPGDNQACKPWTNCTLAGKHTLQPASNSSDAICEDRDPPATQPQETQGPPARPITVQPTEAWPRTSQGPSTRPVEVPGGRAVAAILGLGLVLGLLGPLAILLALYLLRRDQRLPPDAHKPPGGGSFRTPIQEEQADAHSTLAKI

[3] = target: T3, human OX40 (antigen of the ELISA of Example 4) (human, UniProt P43489 29-216, limits assumed); assay: ELISA on human OX40 (Example 4, steps as in Example 2), OD450 against log concentration of antibody
T3 construct: either human OX40-His or human OX40-Fc-biotin
T3 sequence (looked up): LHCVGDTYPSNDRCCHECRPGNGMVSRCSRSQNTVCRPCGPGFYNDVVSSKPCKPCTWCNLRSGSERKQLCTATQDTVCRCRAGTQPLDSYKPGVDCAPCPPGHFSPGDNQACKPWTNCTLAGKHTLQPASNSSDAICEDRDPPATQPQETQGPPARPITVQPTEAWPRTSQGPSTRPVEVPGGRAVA

[4] = target: T3, human OX40 (antigen of the ELISA of …); assay: as above; remark: listed apart in the source
[5] = target: T2, human OX40 on Jurkat-NF-Kb luc-hOX40 …; assay: cell-based or functional assay; remark: listed apart in the source
[6] = target: T1, human OX40-FC-biotin (human OX40 …); assay: blocking ELISA: OX40L coated, biotin-OX40-Fc pre-incubated with antibody, SA-HRP
Protocol: The well-plate was coated with the OX40 ligand (Acrobiosystem, OXL-H52Q8), blocked, added the gradient-diluted antibody to be tested (the antibody was diluted in a solution comprising human Bio-OX40-FC (Acrobiosystem, OX40-H5255, labeled with biotin), pre-incubated for 40 minutes, and then added into the plate), incubated for 40 minute, and washed. SA-HRP (Jackson Immunoresearch, 016-030-084) was then added and incubated for 40min. The developing solution and stop solution were added, and the OD value was measured.

[7] = target: T4, human OX40-His protein (sinobiological # 10481-H08H) (human, UniProt P43489 29-216); assay: SPR (Biacore T200), antibody coupled to CM5 chip, OX40-His as analyte, 1:1 model
T4 construct: Bought; analyte in Biacore; not shown: His tag
T4 sequence (looked up): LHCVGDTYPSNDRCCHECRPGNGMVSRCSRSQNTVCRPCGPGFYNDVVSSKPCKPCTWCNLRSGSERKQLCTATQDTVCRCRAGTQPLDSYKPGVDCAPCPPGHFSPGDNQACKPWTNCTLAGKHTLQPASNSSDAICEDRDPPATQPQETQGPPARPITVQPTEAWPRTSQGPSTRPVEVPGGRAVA
Protocol: Using the kit provided by Biacore, the recombinant anti-OX40 antibody to be tested of the present invention was covalently connected to the CM5 (GE) chip by NHS standard amino coupling method. A series of concentration gradients of human OX40-His protein (sinobiological # 10481-H08H) diluted in the same buffer were then loaded into each cycle at a flow rate of 30 μL/min. After loading, the chip was regenerated using regeneration reagent provided in the kit. The antigen-antibody binding kinetics was traced for 3 minutes, and the dissociation kinetics was traced for 10 minutes. The resulting data were analyzed by using BIAevaluation software (GE) with 1:1 (Langmuir) binding model.

B1: humanized antibody 2G3-hu6 (antibody, human IgG1, V domains shown)
VH: QVQLQESGPGLVKPSQTLSLTCTVSGFSLSRYSVHWVRQPPGKGLEWIGMIWDGGNTDYAAPVKGRFTISRDDSKNTLYLQMNSLKTEDTAVYYCARNPLYFSYAMDYWGQGTLVTVSS
VL: DIQMTQSPSSLSASVGDRVTITCRASQDISNYLNWYQQKPDQSPKLLIIYTSRLQSGVPSRFSGSGSGTDYTLTISSLQPEDFATYYCQQVNTFPFTFGQGTKLEIK
notes: hu2G3 VH1.2 + hu2G3 VL1
- EC50 [1]: 0.82 µg/mL

B2: humanized antibody 2G3-hu2 (antibody, human IgG1, V domains shown)
VH: QVQLQESGPGLVKPSETLSLTCTVSGGSISRYSVHWIRQPPGKGLEWIGMIWDGGNTDYNSALKSRVTISVDTSKNQFSLKLSSVTAADTAVYYCARNPLYFSYAMDYWGQGTLVTVSS
VL: DIQMTQSPSSLSASVGDRVTITCRASQDISNYLNWYQQKPDQSPKLLIIYTSRLQSGVPSRFSGSGSGTDYTLTISSLQPEDFATYYCQQVNTFPFTFGQGTKLEIK
notes: hu2G3 VH2 + hu2G3 VL1
- EC50 [1]: 1.6 µg/mL

B3: humanized antibody 2G3-hu4 (antibody, human IgG1, V domains shown)
VH: QVQLQESGPGLVKPSETLSLTCTVSGGSISRYSVHWIRQPPGKGLEWIGMIWDGGNTDYNSALKSRVTISVDTSKNQFSLKLSSVTAADTAVYYCARNPLYFSYAMDYWGQGTLVTVSS
VL: DIQMTQSPSSLSASVGDRVTITCRASQDISNYLNWYQQKPGKAPKLLIYYTSRLQSGVPSRFSGSGSGTDYTLTISSLQPEDFATYYCQQVNTFPFTFGQGTKLEIK
notes: hu2G3 VH2 + hu2G3 VL2
- EC50 [1]: 2.27 µg/mL

B4: chimeric antibody Ch2G3 (antibody, V domains shown)
VH: QVQLKESGPGLVASSQSLSITCTVSGFSLSRYSVHWVRQPPGKGLEWLGMIWDGGNTDYNSALKSRLSISKDNSKSQVFLKMNSLQTDDTAMYYCARNPLYFSYAMDYWGQGTSVTVSS
VL: DIQMTQSTSSLSASLGDRVTISCRASQDISNYLNWYQQKPDGTVKLLIIYTSRLQSGVPSRFSGSGSGTDYSLTISNLEQEDIATYFCQQVNTFPFTFGSGTKLEIK
- EC50 (nM), in vitro activation of reporter gene (luciferase, Jurkat-NF-Kb luc-hOX40 cells with Raji cells, anti-CD3 coated) [2]: 0.637 nM
- EC50 (read off the curve) [3]: ~0.01 µg/mL

B5: chimeric antibody Ch4B5 (antibody, V domains shown)
VH: QVQLKQSGPGLVQPSQSLSITCTVSGFSLTSYGLHWFRQSPGKGLEWLGVIWSGGSTDYNAAFISRLSISKDDSKSQVFFKMNSLQADDTAIYYCAREEYDVWGTGTTVTVSS
VL: DIQMTQTASSLSASLGDRVTISCRASQDISNYLNWYQQKPDGTVKLLIYYTSRLHSGVPSRFSGSGSGTDYSLTISNLEQEDVATYFCQQGNTLPWTFGGGTKLEIK
- EC50 (nM), in vitro activation of reporter gene (luciferase, Jurkat-NF-Kb luc-hOX40 cells with Raji cells, anti-CD3 coated) [2]: 0.559 nM
- EC50 [1]: 0.208 µg/mL
- EC50 (read off the curve) [4]: ~0.02 µg/mL

B6: murine monoclonal antibody m4B5 (antibody, V domains shown)
VH: QVQLKQSGPGLVQPSQSLSITCTVSGFSLTSYGLHWFRQSPGKGLEWLGVIWSGGSTDYNAAFISRLSISKDDSKSQVFFKMNSLQADDTAIYYCAREEYDVWGTGTTVTVSS
VL: DIQMTQTASSLSASLGDRVTISCRASQDISNYLNWYQQKPDGTVKLLIYYTSRLHSGVPSRFSGSGSGTDYSLTISNLEQEDVATYFCQQGNTLPWTFGGGTKLEIK
notes: Murine hybridoma monoclonal
- EC50 [1]: 0.58 µg/mL
- EC50 (read off the curve) [4]: ~0.04 µg/mL

B7: murine monoclonal antibody m2G3 (antibody, V domains shown)
VH: QVQLKESGPGLVASSQSLSITCTVSGFSLSRYSVHWVRQPPGKGLEWLGMIWDGGNTDYNSALKSRLSISKDNSKSQVFLKMNSLQTDDTAMYYCARNPLYFSYAMDYWGQGTSVTVSS
VL: DIQMTQSTSSLSASLGDRVTISCRASQDISNYLNWYQQKPDGTVKLLIIYTSRLQSGVPSRFSGSGSGTDYSLTISNLEQEDIATYFCQQVNTFPFTFGSGTKLEIK
notes: Murine hybridoma monoclonal
- EC50 [1]: 0.867 µg/mL
- EC50 (read off the curve) [3]: ~0.03 µg/mL

B8: humanized antibody 2G3 (antibody, human IgG1, kappa, V domains shown)
VH: QVQLQESGPGLVKPSETLSLTCTVSGYSISRYSVHWVRQPPGKGLEWIGMIWDGGNTDYNAALKSRFTISRDNAKNTLYLQMNSLRAEDTAVYYCARNPLYFSYAMDYWGQGTLVTVSS
VL: DIQMTQSPSSLSASVGDRVTITCRASQDISNYLNWYQQKPDQSPKLLIIYTSRLQSGVPSRFSGSGSGTDYTLTISSLQPEDFATYYCQQVNTFPFTFGQGTKLEIKR
notes: also called 2G3 (hu2G3 VH1.1 + hu2G3 VL1)
- EC50 (nM), activation of reporter gene (luciferase, Jurkat-NF-Kb luc-hOX40 cells with Raji cells, anti-CD3 coated) [5]: 2.29 nM
- IC50 [6]: 1.88 nM
- Kd [7]: 4.63 nM
- koff [7]: 0.00202 s⁻¹
- kon [7]: 437000 M⁻¹ s⁻¹

B9: humanized antibody 2G3-hu1 (antibody, human IgG1, V domains shown)
VH: QVQLQESGPGLVKPSETLSLTCTVSGYSISRYSVHWVRQPPGKGLEWIGMIWDGGNTDYNSALKSRFTISRDNSKNTLYLQMNSLRAEDTAVYYCARNPLYFSYAMDYWGQGTLVTVSS
VL: DIQMTQSPSSLSASVGDRVTITCRASQDISNYLNWYQQKPDQSPKLLIIYTSRLQSGVPSRFSGSGSGTDYTLTISSLQPEDFATYYCQQVNTFPFTFGQGTKLEIK
notes: hu2G3 VH1 + hu2G3 VL1
- EC50 [1]: 0.886 µg/mL

B10: humanized antibody 2G3-hu5 (antibody, human IgG1, V domains shown)
VH: QVQLQESGPGLVKPSETLSLTCTVSGYSISRYSVHWVRQPPGKGLEWIGMIWDGGNTDYNAALKSRFTISRDNAKNTLYLQMNSLRAEDTAVYYCARNPLYFSYAMDYWGQGTLVTVSS
VL: DIQMTQSPSSLSASVGDRVTITCRASQDISNYLNWYQQKPGKAPKLLIYYTSRLQSGVPSRFSGSGSGTDYTLTISSLQPEDFATYYCQQVNTFPFTFGQGTKLEIK
notes: hu2G3 VH1.1 + hu2G3 VL2
- binding result [1]: binds

B11: humanized antibody 2G3-hu7 (antibody, human IgG1, V domains shown)
VH: QVQLQESGPGLVKPSQTLSLTCTVSGFSLSRYSVHWVRQPPGKGLEWIGMIWDGGNTDYAAPVKGRFTISRDDSKNTLYLQMNSLKTEDTAVYYCARNPLYFSYAMDYWGQGTLVTVSS
VL: DIQMTQSPSSLSASVGDRVTITCRASQDISNYLNWYQQKPGKAPKLLIYYTSRLQSGVPSRFSGSGSGTDYTLTISSLQPEDFATYYCQQVNTFPFTFGQGTKLEIK
notes: hu2G3 VH1.2 + hu2G3 VL2
- EC50 [1]: 0.743 µg/mL

B12: humanized antibody hu4B5-V7 (antibody, human IgG1, kappa, V domains shown)
VH: QVQLKESGPGLVKPSETLSLTCTVSGFSLTSYGLHWFRQPPGKGLEWIGVIWSGGSTDYNAAFISRVTISKEDSKSQVSLKLSSVTAADTAVYYCAREEYDVWGQGTTVTVSS
VL: DIQMTQSPSSLSASVGDRVTITCRASQDISNYLNWYQQKPGGVPKLLIYYTSRLHSGVPSRFSGSGSGTDYTLTISSLQPEDVATYYCQQGNTLPWTFGGGTKVEIKR
- EC50 (nM), activation of reporter gene (luciferase, Jurkat-NF-Kb luc-hOX40 cells with Raji cells, anti-CD3 coated) [5]: 0.341 nM
- EC50 [1]: 0.254 µg/mL
- IC50 [6]: 0.725 nM
- Kd [7]: 2.81 nM
- koff [7]: 0.000369 s⁻¹
- kon [7]: 131000 M⁻¹ s⁻¹
